B1: PsaF subunit of photosystem I (natural protein, Synechocystis sp. PCC 6803, UniProt P29256 24-165, looked up)
chain: DDFANLTPCSENPAYLAKSKNFLNTTNDPNSGKIRAERYASALCGPEGYPHLIVDGRFTHAGDFLIPSILFLYIAGWIGWVGRSYLIEIRESKNPEMQEVVINVPLAIKKMLGGFLWPLAAVGEYTSGKLVMKDSEIPTSPR
notes: PsaF, PSI subunit, Synechocystis sp; PCC 6803; Stood in the assay as a subunit of PSI; also called PsaF/J; PsaJ/F; source: endogenous, purified as part of the PSI-IsiA supercomplex from Synechocystis sp; PCC 6803 (DDM-solubilised membranes, DEAE column, sucrose gradients)
B2: iron-stressed induced protein A (IsiA) (natural protein)
chain: not shown
notes: IsiA, iron-stressed induced protein A, Synechocystis sp; PCC 6803; six trans-membrane helices; model rebuilt from subunit X of PDB 6NWA; Each IsiA protomer coordinates 17 chlorophylls and 4 carotenoids; 18 copies form the ring around the PSI trimer; also called IsiA protomer; IsiA monomer; source: endogenous, purified as PSI-IsiA supercomplex from Synechocystis sp; PCC 6803 grown with low iron …
B3: PsaJ subunit of photosystem I (natural protein, Synechocystis sp. PCC 6803, UniProt Q55329 1-40, looked up)
chain: MDGLKSFLSTAPVMIMALLTFTAGILIEFNRFYPDLLFHP
notes: PsaJ, PSI subunit, Synechocystis sp; PCC 6803; Stood in the assay as a subunit of PSI; also called PsaF/J; PsaJ/F; source: endogenous, purified as part of the PSI-IsiA supercomplex from Synechocystis sp; PCC 6803 (DDM-solubilised membranes, DEAE column, sucrose gradients)

Key:
[1] = target: B2; assay: cryo-EM structure; native PSI3-IsiA18 supercomplex co-purified from Synechocystis sp. PCC 6803 membranes in DDM; 30 mM Tricine-NaOH pH 8, 75 mM NaCl, 0.02% DDM; 1.5 mg chlorophyll/ml; vitrified on holey carbon grids; C3 symmetry expansion and multibody refinement; conditions: both partners purified
[2] = target: the molecule itself; assay: as above

binding result [1] | Binder | stoichiometry N [2]
binds | B1 | 
 | B2 | 18
binds | B3 | 

— paper PMC10397321, “Energetic robustness to large scale structural fluctuations in a photosynthetic supercomplex” (Nature Communications, 2023)
